Experimental data: the domain aggregation screens of Martell et al. (2025)

Test: soluble fraction after stress (log2 fold change); higher = more stays soluble; pooled small domains, quantitative proteomics
Details: stress: pH 4
Outline: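 Aggregation propensity is estimated from the fold change in each domain's soluble amount after acid stress. Pooled small-domain libraries were stressed at pH 4, and higher log2 values mean more stayed soluble.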

Sequence | soluble fraction (log2)
HMTIGPALAIGGNKVEMTQQGKIQVTNPQGKIKTLSQDEFKKQLVKNADKIEAGQDFEFKKD | 0.339
HMTIKLFPNPSTDFIRVSELSAKENYKIYTILGSEIKRGSVSNNETIDIRNLNSGVYLLKFDNGTTKKIVK | 0.124
HMTIKTAFPAEDLAKPDNFKSLLYYFGLLTIRGTKWGSTLLAIPNLTVREQLYSYLVEAYRSADL | 0.244
HMTILKEGMSGPEVERLQDALKRHGFDPGRVDGQFGPGTEAAILAFQKSEGLRADGVAGPKTQQALGLE | 0.155
HMTIRLKELRKQKGNTQAEVAKILGTNQSQYGKYENERTQLSLDNAKILSDYFGVSVPYLLGLDDNP | -0.486
HMTISDTAYQAFLEQLGVGMVVEHKRFGEGVITGMPKGKIRITFEEGTKSFQARALAESGMLK | -0.824
HMTISIAEQIFEQLEREILSGAYPRGELLTETKLSEKLGVSRTPIREALRRLDQEHIIKMTTKGAFVLGI | 0.198
HMTITIGNSDGGYMKMGADGFEVRFSGSDGGNHYAKMYYNNDGWARLTLGSYGEEKARIDSDGMIQTR | 0.208
HMTKEAIAQKLRIARQESGLTQKDVSAKIGRPQQTIASWEVGRSQPDADTLYSLLLLYKVSPNTFFEYD | -0.237
HMTKEEIVVNWLPRYTKRNLEDFGEYILLTNFNKYVEIFAEKFNVPILGRDANMISASAEGITIIN | -0.359
HMTKEEREKREKYEKLMKKAEELTAAKNHREVINVLGQAKAYATAAQLKEIEEKIKAATSEMNK | 0.257
HMTKEGVNISITADGVQLSTESPNRVSIFNVNGTKVWEGIAPANVSLQKGVYILQTANGNTKFV | -0.407
HMTKLLITNYERNVLINSYLLKNTPELDDIRRLLVHNKHISENDVSTEMARRIKKHKADWLRVT | 0.00962
HMTKLTPLEVNLYAKKLANDPEFGSKHIEPGESFSQAEERLRVQLSQQEYVQKYSKYLKKLKASA | 0.0433
HMTKPAEVRIDELMNAAQTLFLAKGVEATTISEIIASVGVAKGTFYHYFESKQHIVEALKKRYID | -1.03
HMTKQNVVPLMYRMIDTLEQFIKADVPFNIETRLARVERLRETMVSSSVTTSEKFRQVLEAYTIETD | -1.53
HMTKSEWLRESREHLGLSQTDLRNLLNTALNRSYDKSRISRWENSKENIPAEVVKQIESLIATR | 0.406
HMTKTRTEILEYLKQNWSVTVSASDIKKHLEEKEIKANTTTIYRYLDKLLAEHVIIKYADAGSERAVYQYS | -0.687
HMTKVIEFLVSDEEHGVRADKAFVSHNQKLSRSYFKKLILNGNLYINNKVNLDPSYKLIKGSTVRIILPE | -0.698
HMTKVKIDRLFSIVQMLVNRKSVTAKELADYFNVSVRTIYRDIEILSANGIPIYATQGKGGGISILEN | -0.663
HMTKYEGLSLDLIIDGVVITHNLKLAKLDMNWLLDRLKENGWDNPKDIFYAYIDTAGNFRFQPKLKASRTR | -0.906
HMTKYREVLRMSAGGFSQRVIASTLSISRNTVASTLKRAREQNLDWEAVEQQRLSEKDIANLLFP | 0.293
HMTLAEEFNNLNGKVITRETLESLLVKAEKEQNSTISNRIRKVLQAYTADTFLIELQHTESA | -0.0269
HMTLALKQGSTGSTVKQVQQKLKNWGYYSGAVDGIFGSGTRKAVVLFQKRNKLTADGIVGSKTLEALGIYV | 0.0782
HMTLDDSIALGRSLLDKGLMDFGTNLANLAEDKLRDFLSQQRYENLDDLFADIARGNRLPMFTAQQLLS | -0.481
HMTLDVALSKEIKYMLKEEHYLPGDKLPSERKLAELFHVQRLTVRGALNLLLQDKTIISKPRSGYYVAPKR | 0.225

Sequence | soluble fraction (log2)
HMTLFDESGYTARELEIIREVANGLSNKEIADKLFLSEGTVKNYITGILAKENLSHRTALAVYYLTGRK | -0.558
HMTLHEAMEKLFRQVGRPMTTKEIAEKLNENKWYQKADGSPLTPYQIYGRAKNYPALFHREGSIIYLKGS | 0.136
HMTLKTISLTEAIKNTNEGNYSKLVLDGNELTITEQGKETPSLKTYTEPGTSLKEQGFDLSKVEFEAREQS | -0.011
HMTLNQEELMGKTEAILFAGGEPVSLDRIAQVLGVRTPVIDSIVSALQEKYNTPTSGIQLMRL | -0.467
HMTLPELTDRELQILQLLSVGNSSQKIAKQLNISTHTVSTHRKQLLRKLGAQNGADLIRRAQKLGIL | 0.0897
HMTLQEFYARVGGDYNATLSRLPSEALVKKFILKYPGDPSFAQLKDALAAQDWELAFRASHTLKGVAQN | -0.493
HMTLSAPMPGTVLKIHVKEGQRVRKGQTLVVLEAMKMEHRIQAPKAGEVTNLHFSEGDRVDMGEILVEIG | -0.905
HMTLSDDEFEIIKSLIIDTLKEEALTINALTKKINHKEAKTIQVIRFLLDNGLVAENNLMKLFVI | -1.54
HMTLTIEDQLRRLRARLGRGRAFLFSDVLVNPHDRTEIAVTLLALLELIKRREAQASQSYLFGPIEVAAA | -1.33
HMTLTLEQAAAIKNSEGEQYGKIESERLAAMSVQIDKAIKSNGHDPNKKADLERKLDAIGIILNARAAG | -0.0482
HMTLVKRSAMVTAWSEFAGGRVNSKLIALQNGKAGDWIELENPQSGRKLRGRVQSDGSVRLGS | 0.017
HMTLYITDQMRKILDYVATNQEIDEKAVMDLLSIQRTRAYLIAKKMTDIGLLQVQGRGKTKTYRLAARS | -0.285
HMTLYQIGDKVVHPMHGAGVIDSVVQRKVSGQVQEFYLLKLSVGNMVVMVPTDNTGEIGMRP | -0.777
HMTMEQAEFLSRQFNLLSQRLNDPSIEWQDIADLRSEYTGEDEHRDTIRKGAKLFYEYLEAGWIKN | -0.867
HMTMKNPNGYGSVINLGKGRRRPWAARVTTGLVYDEKKDKLIQRYKYIGYADTRKEAHQILAEYNAGLPI | 0.0906
HMTMMTFGEKLQNARKGAGLSQEQLAEKLSVSRSAVAKWENDNGMPDIDNLKAIAQLLDVSIDYLLEN | -0.71
HMTMNLIEIGHVVGARRAELGLTQAQLAHLSGLSRQTVVGLEKGTLSDLGVNRVGQVMAVLGLDS | -0.242
HMTMPDFGYMRVSYAEARRQLQAIGISVSTIEKVEDPSHTSATGDMVISQYPAAGSKIEGTVTLYVSVAS | 0.332
HMTMSFSELLRGLRKSRGMSQAELATAVGLSQAQVSQIETGKLLPSPELIEKLAALYGIALGSA | 0.0703
HMTMTKELGQRIRAERTARKMTQEELAERADLHPTYIGQVERGEKSLTIASLEKIVEGLGISFSDLFEN | -0.0395
HMTMVKYRYLTDGELKEFEEEFKHFLIANGLHSEEWERLNNEDSNKAIEVVALFSNLILDKV | -1.06
HMTMVLPDAARDKLKAIGLSIEHVEPSPVKDIFTVISREGVSYVSKDGDYIFTGSLFHVKGKDVVNTTEQA | -0.275
HMTNEAFITPSVLEWAIKRAGVSAESIHKKAEQWVSGKARPTFKQAVDIAKTLQIPFGYLWLKEPPKEQ | -0.442
HMTNELVNVNKLLDVMEPSIPLTALEIMTRLGIKSKETLRNSYLNPAIKLGMINLTSPLKPTSKNQMYYK | 0.111
HMTNKSKQRRNEILRASQELFNKKGFHDTSINDIMRRVGAAKGVFYYYFETKDQILDTLIEQHIA | -0.471
HMTNLTPKQQQIYQFIRASTQANGYPPTLREIGQQVGVRSPSTVKYHLDNLRTLGLLHWDGGKTRSITLP | 0.0274

Sequence | soluble fraction (log2)
HMTNNFIVTWRNYNEEVLEIDVNVKKGSMPKYNGKTPEREGYQFVGWDPEITEVTKDITYVAQFM | -0.0457
HMTNQKEITYSQFRQELDQGSIKSVSLQGSRIRGTYVDGGISFRTLAPNDADLIPSLMKHKVDIQVLPED | 0.0675
HMTNSTGWSKSGGTQVTIREGETIYNLSRRYGVPAKSIMEANGIADATAVRAGQRISIPTYSY | 0.22
HMTNVDELIGKEAVVVKEIRPYTTGEVKLDGKVWRAMSESKQVYKVDEIVTVLRIEGVTMII | -0.142
HMTNVETLVRMRLRSIRTTLGYSLDEIAERSNLSASTVSRIETGKRALSIDVLVPLAAALQVSVDDLLRAE | -1.31
HMTNYREILRLRSLGLNHSRIAESMGISRPTVIAALQRAQTQELNWQAAESLSDIDLAQRLNP | -0.2
HMTNYYTVTFKEGDTVLKEVSVHSGDGVPYAVAPKRDDIVGWSYNGNTYTTDLNTLKIKKEVTFTAVT | 0.183
HMTPAIEKTAVIVFINGKKYYVHTVKSGETLYSIAKAYKVDEKVIKEHNPNVADGLRIDQTVKIPVPEQVK | -0.0592
HMTPAPHESLTDREMEVLKLLAQGLSNQEIADKLFIGVKTVKYHITNIFSKLGVEDRTQAAIYAHKQGLA | -0.185
HMTPDDSYIAGYAAGILKHQFLIDAPELIVRNGTITIPADKVSAGDRAKVVQILSGIPGVTRVEVG | 0.368
HMTPDVHRGDTITVSLRAGAIRVRVPAKALEEGAAGGEIRVVNLTGGREYRVRVTGPGTAEAIL | 0.0112
HMTPEGAYTVSEIVKVINSFADEYKVPFTMHVSGYKYEEIAQQLGLPIGTVKSRIFFARKRLQELLN | -1.03
HMTPEPVTMYITSLTEFRSEPNTEAGIIKLLDAYEEVEMIESRGEWSKISYGDQIGYILSEFLTAENRT | -1.78
HMTPILTAQQVVAALQAAGYRNVHDLEFEHGRWEADAVNAAGQRVELHINPYTGAIERERLD | -0.0319
HMTPKTSVPKPGQTVVVRKGDTIYALARIHDITPADLIAWNRLDNPSQIYPGQVIRLYPQGA | 0.105
HMTPKVDLTVAEDGSASAVIAGLRVEIDAAGKVTAVAPADGTTDLSSVAPEAVKEAMDNALAAYTASKG | 0.167
HMTPLFNQGEVLKGFVLQTGTNNRVLLQIGTAKVLADAQTPLKAGEQLTLRVEATGPRTVLQILG | 0.101
HMTPLILTAQEGGERLDAFVASQVEDLTRSAAQRLLEQGAVTSGGKPLKKNAKTTPGMVVEVLLPDPQ | -0.0145
HMTPPPTNSREWMEWGISHGLDANLDRSGQVVFYTDDRVVADAAELSGADLERDNMGQFVIYTGAYDKG | -0.743
HMTPQEQWNNAYLLAKDYYDANGNLDIDEKYKTKDGFELGSWLTTQRNVYKRGKLSPEKTKKLEEIGISF | -0.107
HMTPQGALDYSRNAKYLRDQVTAINYLKQARLSLNTTDANYRQTLEQINQAIAKHNQALQQAGVQSQQLAT | 0.22
HMTPTPQQNNILVGQTGTTLTRLAPMGKVRVGEVTAEAKTIDGYINPRQSVEVIGFENTVVIVRAV | 0.22
HMTPVIINESGGDQDTRIEGLNDNNLLYVDASTDRVGVGVATPTQKLDVNGDVAISGGSLYLSQ | -0.0183
HMTPVKAPLPGVVTKINVSVGQQVKKGENVLVLEAMKMENNIAAEADGTVSGIAVKAGDSVLEGAVLLTI | -0.0107
